Assay results: publication PMC7617732 (Science translational medicine, 2024)
Where a chain is given by its changes, count along the chain named.

B1: 95Mat2 (antibody, V domains shown)
VH: QVQLVQSGAEVKKPGSSVKVSCKASGGTFSSYAISWVRQAPGQGLEWMGGIIPIFGTANYAQKFQGRVTITADESTSTAYMELSSLRSEDTAVYYCARIPLVWYESGPYESGVFDYWGQGTLVTVSS
VL: not shown
B2: 95Mat4 (antibody, V domains shown)
VH: B1 VH with V102H
VL: not shown
B3: 95Mat6 (antibody, V domains shown)
VH: B1 VH with T57H, V102I
VL: not shown
B4: 95Mat3 (antibody, V domains shown)
VH: B1 VH with T57P
VL: not shown

Molecular target: T1, 3FTx-L15 (recombinant long-chain three-finger α-neurotoxin variant) (Ophiophagus hannah (king cobra), long …)
T1 chain: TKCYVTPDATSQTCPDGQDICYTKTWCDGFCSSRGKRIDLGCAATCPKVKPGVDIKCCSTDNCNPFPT

Binder	Kd	binding result
B1	0.1 nM	–
B2	–	binds
B3	0.103 nM	–
B4	–	binds
